Measured values published in publication PMC5591645.

Biological target: phosphorylated human eIF2α (amino acids 1–185) solubility-enhanced mutant (P-eIF2α) (human) (UniProt P05198)
Assay: MST

Row | Substance | fold higher affinity than the isolated PP1^D95A [fold] | Kd [nM]
1 | R15A–PP1^D95A (from UniProt O75807;P62136) (complex) | 5.4 | –
2 | PP1^D95A (human PP1α amino acids 7–330, D95A) (from UniProt P62136 7-330) (enzyme) | – | 650
3 | R15B–PP1^D95A (from UniProt Q5SWA1;P62136) (complex) | 3 | –
